This note sets out measurements from US20170355781A1 (CCAM BIOTHERAPEUTICS, published 2017).

The target in assay [1] is T1, human CEACAM1 on cells (human, UniProt P13688 35-526).
T1 construct: whole, on cells; Used for endogenous CEACAM1 (526mel, Malme 3M, SKmel5, G361, NK 92MI, primary cells) and for 721.221 transfectants; also called hCEACAM1
T1 sequence (looked up): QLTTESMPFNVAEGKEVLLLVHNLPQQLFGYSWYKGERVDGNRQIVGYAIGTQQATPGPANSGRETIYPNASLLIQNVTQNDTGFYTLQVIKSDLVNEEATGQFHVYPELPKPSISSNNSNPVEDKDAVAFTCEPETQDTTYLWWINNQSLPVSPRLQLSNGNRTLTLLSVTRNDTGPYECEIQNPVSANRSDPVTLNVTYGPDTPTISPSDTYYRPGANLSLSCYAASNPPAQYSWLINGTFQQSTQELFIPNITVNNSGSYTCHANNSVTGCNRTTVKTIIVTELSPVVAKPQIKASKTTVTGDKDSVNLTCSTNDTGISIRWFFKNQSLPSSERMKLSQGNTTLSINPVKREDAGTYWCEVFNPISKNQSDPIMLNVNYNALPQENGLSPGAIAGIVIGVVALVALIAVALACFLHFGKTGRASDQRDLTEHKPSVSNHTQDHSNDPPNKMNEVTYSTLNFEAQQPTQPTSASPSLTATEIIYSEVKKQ

Assay [2] addresses chimeric molecule composed of the extracellular portion of human CEACAM1 fused to mouse z-chain, on BW cells (human; mouse, UniProt P13688 35-428; P24161 31-164). In words: cell-based or functional assay.
Assay [3] concerns the target T1, human CEACAM1 on cells. In words: blocking assay by FACS: SKMEL5 cells (CEACAM1 positive) pre-incubated with CM10 and washed, then soluble biotinylated CEACAM5 detected with streptavidin-APC. The protocol:
CEACAM1 positive cell line (SKMel 5) was incubated with an isotype control or CM10 in various concentrations, unbound CM10 was washed twice, followed by incubation with or without soluble biotinylated CEACAM5. The binding of the biotinylated CEACAM5 to the cells was detected by a secondary strepavidin-APC and FACS analysis. The results represent the mean of duplicate wells±SE. Similar results were obtained in two other independent experiments.

The target in assay [4] is T2, recombinant purified human CEACAM1 (human, UniProt P13688 35-428, limits assumed).
T2 construct: also called purified hCEACAM1; Recombinant CEACAM1
T2 sequence (looked up): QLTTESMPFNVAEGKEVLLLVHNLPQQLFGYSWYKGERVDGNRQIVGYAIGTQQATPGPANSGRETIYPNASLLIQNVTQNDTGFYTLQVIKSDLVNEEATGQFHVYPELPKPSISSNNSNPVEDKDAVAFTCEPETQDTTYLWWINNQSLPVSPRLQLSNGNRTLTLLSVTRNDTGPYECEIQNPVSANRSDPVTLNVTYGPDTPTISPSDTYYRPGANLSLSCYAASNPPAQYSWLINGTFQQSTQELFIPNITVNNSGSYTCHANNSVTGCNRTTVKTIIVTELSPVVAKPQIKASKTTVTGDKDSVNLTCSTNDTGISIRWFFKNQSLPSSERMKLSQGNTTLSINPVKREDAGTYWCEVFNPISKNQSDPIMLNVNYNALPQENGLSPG
In words: indirect ELISA on plate-bound purified human CEACAM1, double dilutions of CM10. The protocol:
The binding specificity of CM10 to human CEACAM1 was tested in ELISA assay using purified human CEACAM1. Indirect ELISA using 23 double dilutions of CM10 were used to generate specific binding curve. The results shown in FIG. 2 represent average O.D. from triplicate±SE. Similar results were obtain from other ten independent experiments.

Assay [5] addresses T3, CEACAM4 transiently expressed on HEK 293T cells (human, UniProt O75871 36-244).
T3 construct: whole, on cells
T3 sequence (looked up): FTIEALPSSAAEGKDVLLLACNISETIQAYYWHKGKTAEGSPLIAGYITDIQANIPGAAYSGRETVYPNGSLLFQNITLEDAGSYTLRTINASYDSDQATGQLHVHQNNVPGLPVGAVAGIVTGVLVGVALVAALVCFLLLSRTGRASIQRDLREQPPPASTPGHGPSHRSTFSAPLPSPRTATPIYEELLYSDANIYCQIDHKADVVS
As to the kind of experiment: flow cytometry, biotinylated CM10 plus Strep-Avidin APC on HEK 293T cells transiently expressing CEACAM-4. The protocol:
A standard FACS protocol was used with CM10 conjugated to a Biotin molecule and Strep-Avidin APC as secondary agent. […] Empty histograms represent mAb staining while red histograms represent background staining. At least 10000 cells were used to analyze CM10 binding in each histogram. FAB was calculated by dividing the MFI of the stained cells in the MFI of the background staining.

Assay [6] addresses T2, recombinant purified human CEACAM1. As to the kind of experiment: SPR, Biacore 3000, antibody immobilized on CM5 chip, recombinant CEACAM1 flowed; average of three independent experiments. The protocol:
(§1) Each antibody was immobilized onto a single channel of a CM5 sensor chip of Biacore3000 instrument by NHS-EDC coupling chemistry.
(§2) Recombinant CEACAM1 was flowed at 50 μl/min over the chip in various concentrations (0.19, 0.39, 0.78, 1.56, 3.12, 6.25, 12.5 and 25 nM). The running buffer was PBS-ET (10 mM p-buffer pH7.4, 150 mM NaCl, 3.4 mM EDTA and 0.005% tween 20).

The target is the same in assay [7]. As to the kind of experiment: SPR, Biacore 3000, antibody immobilized on CM5 chip, recombinant CEACAM1 flowed; three independent experiments. The protocol: as §1, §2
(Surface plasmon resonance follows binding to a sensor surface in real time, without labels.)

In turn, “chimeric molecule composed of the extracellular portion of human CEACAM1 fused to mouse z-chain, on BW cells (from UniProt P13688 35-428; P24161 31-164) (receptor)” displayed a mouse IL-2 secretion (ELISA), BW/221+ co-culture, no CM10 with human CEACAM1 on cells [1] of 289 pg/mL.

B1: chimeric monoclonal antibody CM10 (antibody, human IgG1, kappa, V domains shown)
VH: QVQLQQSGAELVRPGTSVKVSCKASGYAFTNNLIEWVKQRPGQGLEWIGVINPGSGDTNYNEKFKGKATLTADKSSNTAYMQLSSLTSDDSAVYFCARGDYYGGFAVDYWGQGTSVTVSS
VL: DIQMTQTTSSLSASLGDRVTISCRTSQDIGNYLNWYQQKPDGTVKLLIYYTSRLHSGVPSRFSGSGSGTDYSLTISNLEQEDIATYFCQQGKSLPRTFGGGTKLEIKR
notes: made in CHO cells; PE-conjugated CM10 was used for the QuantiBRITE count; also called CM10.S91; anti CEACAM1 mAb, CM10
With B1, in assay [2], the “IC50 (read off the curve) of the block of mouse IL-2 secretion in the BW/221+ co-culture” value was ~10 ng/mL. For the same molecule, the “IC50 (read off the curve)” value with human CEACAM1 on cells [3] was ~100 ng/mL. Besides, the “EC50 (read off the curve)” value in assay [4] was ~10 ng/mL. Also, in assay [5], the binding result is given as “no binding (tested: 1 µg/ml)”. In addition, the Kd in assay [6] is 4.56 nM; in assay [7], 4.07 to 5.05 nM.

In general, EC50 (read off the curve) refers to the concentration at which the effect is half-maximal. A word on the Kd: it is a measure of binding affinity in units of concentration.
